# Data taken from IntAct's records for PubMed 14992724.
# B1: Meiosis-specific protein SPO11 (Saccharomyces cerevisiae), P23179 (parent)
# chain: MALEGLRKKYKTRQELVKALTPKRRSIHLNSNGHSNGTPCSNADVLAHIKHFLSLAANSLEQHQQPISIVFQNKKKKGDTSSPDIHTTLDFPLNGPHLCTHQFKLKRCAILLNLLKVVMEKLPLGKNTTVRDIFYSNVELFQRQANVVQWLDVIRFNFKLSPRKSLNIIPAQKGLVYSPFPIDIYDNILTCENEPKMQKQTIFPGKPCLIPFFQDDAVIKLGTTSMCNIVIVEKEAVFTKLVNNYHKLSTNTMLITGKGFPDFLTRLFLKKLEQYCSKLISDCSIFTDADPYGISIALNYTHSNERNAYICTMANYKGIRITQVLAQNNEVHNKSIQLLSLNQRDYSLAKNLIASLTANSWDIATSPLKNVIIECQREIFFQKKAEMNEIDARIFEYK
# partner: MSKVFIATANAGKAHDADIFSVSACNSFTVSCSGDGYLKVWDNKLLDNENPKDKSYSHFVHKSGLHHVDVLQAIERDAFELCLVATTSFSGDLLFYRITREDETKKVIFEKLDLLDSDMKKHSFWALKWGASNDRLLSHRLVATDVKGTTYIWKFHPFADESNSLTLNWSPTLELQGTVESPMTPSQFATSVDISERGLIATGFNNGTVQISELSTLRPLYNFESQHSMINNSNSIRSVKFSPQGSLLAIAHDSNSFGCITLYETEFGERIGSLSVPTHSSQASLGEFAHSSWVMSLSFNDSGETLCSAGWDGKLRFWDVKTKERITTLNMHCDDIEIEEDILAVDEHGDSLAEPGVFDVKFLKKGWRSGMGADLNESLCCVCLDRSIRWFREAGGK
# Variants of: B1
# Conditions: with ski8_yeast SKI8, Q02793
row,Variant,effect of a mutation on the interaction
1,MALEGLRKKYKTRQELVKALTPKRRSIHLNSNGHSNGTPCSNADVLAHIKHFLSLAANSLEQHQQPISIVFQNKKKKGDTSSPDIHTTLDFPLNGPHLCTHQFKLKRCAILLNLLKVVMEKLPLGKNTTVRDIFYSNVELFQRQANVVQWLDVIRFNFKLSPRKSLNIIPAQKGLVYSPFPIDIYDNILTCENEPKMQKQTIFPGKPCLIPFFQDDAVIKLGTTSMCNIVIVEKEAVFTKLVNNYHKLSTNTMLITGKGFPDFLTRLFLKKLEQYCSKLISDCSIFTDADPYGISIALNYTHSNERNAYICTMANYKGIRITQVLAQNNEVHNKSIQLLSLNQRDYSLAKNLIASLTANSWDIATSPLKNVIIECQAAIFFQKKAEMNEIDARIFEYK [R377A;E378A],disrupting interaction strength
2,MALEGLRKKYKTRQELVKALTPKRRSIHLNSNGHSNGTPCSNADVLAHIKHFLSLAANSLEQHQQPISIVFQNKKKKGDTSSPDIHTTLDFPLNGPHLCTHQFKLKRCAILLNLLKVVMEKLPLGKNTTVRDIFYSNVELFQRQANVVQWLDVIRFNFKLSPRKSLNIIPAQKGLVYSPFPIDIYDNILTCENEPKMQKQTIFPGKPCLIPFFQDDAVIKLGTTSMCNIVIVEKEAVFTKLVNNYHKLSTNTMLITGKGFPDFLTRLFLKKLEQYCSKLISDCSIFTDADPYGISIALNYTHSNERNAYICTMANYKGIRITQVLAQNNEVHNKSIQLLSLNQRDYSLAKNLIASLTANSWDIATSPLKNVIIECAREIFFQKKAEMNEIDARIFEYK [Q376A],disrupting interaction strength
